Test system: Escherichia coli TOP10
Test: shrunken log2 fold change of peptide-encoding DNA abundance (4.5 h post-induction vs induction); higher = less antimicrobial activity (less host growth inhibition)
Details: time post-induction: 4.5 h; library: site-saturation at positions 5, 18, 19, 20
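Note: peptides expressed intracellularly from a pBAD plasmid library in pooled LB shake-flask culture, induced with 0.3% L-arabinose, DNA abundance read by NGS, three biological replicates, DESeq2 with apeglm shrinkage.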

Sequence	shrunken log2 fold change
RRIRPRPPRLPRPRPRPFQHPRP	-0.00804
RRIRTRPPRLPRPRPRPWDDPRP	0.033
RRIRARPPRLPRPRPRPKRPPRP	1.03
RRIRPRPPRLPRPRPRPIGVPRP	0.108
RRIRYRPPRLPRPRPRPFFAPRP	-0.18
RRIRTRPPRLPRPRPRPWVFPRP	0.0157
RRIRCRPPRLPRPRPRPRFTPRP	0.066
RRIRYRPPRLPRPRPRPNNAPRP	-1.1
RRIRYRPPRLPRPRPRPVGSPRP	-0.277
RRIRTRPPRLPRPRPRPLCIPRP	-0.693
RRIRQRPPRLPRPRPRPPQCPRP	0.114
RRIRPRPPRLPRPRPRPKLPPRP	0.298
RRIRKRPPRLPRPRPRPAVPPRP	0.275
RRIRYRPPRLPRPRPRPKDTPRP	-0.392
RRIRMRPPRLPRPRPRPEAIPRP	2.54
RRIRPRPPRLPRPRPRPMFMPRP	0.0765
RRIRQRPPRLPRPRPRPTRRPRP	0.556
RRIRWRPPRLPRPRPRPEMSPRP	-0.0114
RRIRCRPPRLPRPRPRPSIFPRP	-0.575
RRIRQRPPRLPRPRPRPLGFPRP	0.0916
RRIRWRPPRLPRPRPRPDYGPRP	-0.202
RRIRPRPPRLPRPRPRPPEEPRP	0.885
RRIRVRPPRLPRPRPRPLSKPRP	-0.303
RRIRQRPPRLPRPRPRPWQDPRP	0.07
RRIRVRPPRLPRPRPRPTIIPRP	-0.479

Sequence	shrunken log2 fold change
RRIRIRPPRLPRPRPRPQVSPRP	-0.21
RRIRDRPPRLPRPRPRPPRLPRP	0.144
RRIRIRPPRLPRPRPRPKHNPRP	-0.349
RRIRARPPRLPRPRPRPGMFPRP	0.295
RRIRTRPPRLPRPRPRPVHAPRP	-0.00294
RRIRRRPPRLPRPRPRPTCFPRP	0.469
RRIRCRPPRLPRPRPRPHYPPRP	-0.902
RRIRWRPPRLPRPRPRPTNMPRP	-0.154
RRIRRRPPRLPRPRPRPGMTPRP	0.129
RRIRGRPPRLPRPRPRPHLTPRP	0.357
RRIRMRPPRLPRPRPRPACRPRP	0.633
RRIRCRPPRLPRPRPRPQFPPRP	-0.17
RRIRDRPPRLPRPRPRPSWEPRP	-0.00136
RRIRDRPPRLPRPRPRPCRPPRP	0.0754
RRIRQRPPRLPRPRPRPFTWPRP	-0.398
RRIRSRPPRLPRPRPRPTIRPRP	0.0218
RRIRGRPPRLPRPRPRPHHCPRP	-0.118
RRIRHRPPRLPRPRPRPMNDPRP	-0.108
RRIRMRPPRLPRPRPRPACIPRP	0.112
RRIRARPPRLPRPRPRPGVPPRP	0.727
RRIRLRPPRLPRPRPRPKYRPRP	0.0356
RRIRNRPPRLPRPRPRPELQPRP	-0.0211
RRIRTRPPRLPRPRPRPLEEPRP	-0.0207
RRIRMRPPRLPRPRPRPAQIPRP	-0.0435
RRIRGRPPRLPRPRPRPYCHPRP	0.054

Sequence	shrunken log2 fold change
RRIRSRPPRLPRPRPRPYVRPRP	-0.0846
RRIRHRPPRLPRPRPRPNFDPRP	-0.0783
RRIRERPPRLPRPRPRPKMSPRP	0.148
RRIRKRPPRLPRPRPRPGVCPRP	0.87
RRIRWRPPRLPRPRPRPTQHPRP	0.333
RRIRWRPPRLPRPRPRPCHVPRP	-0.437
RRIRTRPPRLPRPRPRPEVVPRP	0.292
RRIRVRPPRLPRPRPRPMRYPRP	0.453
RRIRCRPPRLPRPRPRPRIVPRP	0.0193
RRIRPRPPRLPRPRPRPSKRPRP	-0.00797
RRIRMRPPRLPRPRPRPMQSPRP	0.886
RRIRRRPPRLPRPRPRPAHWPRP	0.672
RRIRIRPPRLPRPRPRPQTAPRP	0.101
RRIRTRPPRLPRPRPRPWYRPRP	-0.23
RRIRKRPPRLPRPRPRPVPMPRP	0.355
RRIRYRPPRLPRPRPRPMEDPRP	-0.0944
RRIRIRPPRLPRPRPRPDWPPRP	0.0262
RRIRRRPPRLPRPRPRPMWEPRP	0.00178
RRIRMRPPRLPRPRPRPSQAPRP	0.689
RRIRTRPPRLPRPRPRPVVVPRP	0.0543
RRIRNRPPRLPRPRPRPWDFPRP	-0.00226
RRIRFRPPRLPRPRPRPIESPRP	-0.15
RRIRNRPPRLPRPRPRPSYPPRP	0.0469
RRIRVRPPRLPRPRPRPGMCPRP	0.00908
RRIRQRPPRLPRPRPRPKHSPRP	-0.0171

Sequence	shrunken log2 fold change
RRIRSRPPRLPRPRPRPIGQPRP	0.0342
RRIRHRPPRLPRPRPRPNPKPRP	-0.0127
RRIRPRPPRLPRPRPRPAAKPRP	0.435
RRIRVRPPRLPRPRPRPDGAPRP	0.413
RRIRQRPPRLPRPRPRPPPMPRP	0.558
RRIRWRPPRLPRPRPRPMAKPRP	0.148
RRIRDRPPRLPRPRPRPCVVPRP	-0.00921
RRIRCRPPRLPRPRPRPEALPRP	0.0749
RRIRHRPPRLPRPRPRPNVWPRP	0.0763
RRIRRRPPRLPRPRPRPNGIPRP	-0.0555
RRIRMRPPRLPRPRPRPVEKPRP	1.01
RRIRYRPPRLPRPRPRPCYHPRP	-0.289
RRIRMRPPRLPRPRPRPIDWPRP	0.483
RRIRERPPRLPRPRPRPYYPPRP	-0.14
RRIRQRPPRLPRPRPRPYSPPRP	-0.13
RRIRVRPPRLPRPRPRPHQCPRP	0.00485
RRIRNRPPRLPRPRPRPYCLPRP	-0.228
RRIRIRPPRLPRPRPRPESMPRP	0.0174
RRIRVRPPRLPRPRPRPHPWPRP	0.0927
RRIRNRPPRLPRPRPRPSDKPRP	-0.363
RRIRLRPPRLPRPRPRPWYKPRP	-0.0396
RRIRTRPPRLPRPRPRPLLWPRP	0.223
RRIRCRPPRLPRPRPRPTSKPRP	0.921
RRIRFRPPRLPRPRPRPCSIPRP	0.0647
RRIRNRPPRLPRPRPRPNIMPRP	-0.599

Sequence	shrunken log2 fold change
RRIRDRPPRLPRPRPRPPQHPRP	0.171
RRIRTRPPRLPRPRPRPFYPPRP	-0.478
RRIRKRPPRLPRPRPRPNEDPRP	-0.00122
RRIRTRPPRLPRPRPRPNEAPRP	0.172
RRIRKRPPRLPRPRPRPVERPRP	0.204
RRIRTRPPRLPRPRPRPKIAPRP	-0.0425
RRIRLRPPRLPRPRPRPNWSPRP	-0.136
RRIRDRPPRLPRPRPRPSAYPRP	0.0641
RRIRNRPPRLPRPRPRPDALPRP	0.0233
RRIRNRPPRLPRPRPRPIIAPRP	-0.127
RRIRYRPPRLPRPRPRPFQPPRP	-0.375
RRIRCRPPRLPRPRPRPNRQPRP	-0.216
RRIRPRPPRLPRPRPRPQVHPRP	-0.0018
RRIRKRPPRLPRPRPRPAVKPRP	-0.104
RRIRKRPPRLPRPRPRPHEKPRP	1.1
RRIRERPPRLPRPRPRPYNGPRP	-0.509
RRIRDRPPRLPRPRPRPHIGPRP	-0.0522
RRIRDRPPRLPRPRPRPTSHPRP	-0.146
RRIRIRPPRLPRPRPRPDYRPRP	0.0581
RRIRNRPPRLPRPRPRPVGVPRP	-0.0443
RRIRCRPPRLPRPRPRPNISPRP	0.039
RRIRMRPPRLPRPRPRPKHGPRP	0.742
RRIRLRPPRLPRPRPRPVEIPRP	0.0548
RRIRDRPPRLPRPRPRPVFVPRP	0.225
RRIRNRPPRLPRPRPRPDYNPRP	-0.782

Sequence	shrunken log2 fold change
RRIRRRPPRLPRPRPRPFYDPRP	-0.193
RRIRKRPPRLPRPRPRPGMFPRP	-0.126
RRIRKRPPRLPRPRPRPWEQPRP	0.0133
RRIRYRPPRLPRPRPRPGIDPRP	-0.16
RRIRARPPRLPRPRPRPTHLPRP	0.326
RRIRWRPPRLPRPRPRPCRLPRP	0.0377
RRIRFRPPRLPRPRPRPPVRPRP	0.443
RRIRSRPPRLPRPRPRPCYRPRP	0.0109
RRIRTRPPRLPRPRPRPSVEPRP	0.0926
RRIRNRPPRLPRPRPRPMDPPRP	-0.0437
RRIRDRPPRLPRPRPRPVMPPRP	-0.189
RRIRGRPPRLPRPRPRPCHMPRP	-0.00127
RRIRRRPPRLPRPRPRPQIRPRP	0.178
RRIRLRPPRLPRPRPRPPPEPRP	1.35
RRIRDRPPRLPRPRPRPQFHPRP	-0.438
RRIRYRPPRLPRPRPRPWITPRP	-0.0192
RRIRDRPPRLPRPRPRPAHAPRP	0.0741
RRIRMRPPRLPRPRPRPMCHPRP	0.0525
RRIRFRPPRLPRPRPRPKGIPRP	-0.0392
RRIRHRPPRLPRPRPRPGIVPRP	-0.286
RRIRGRPPRLPRPRPRPDLQPRP	1.37
RRIRDRPPRLPRPRPRPRCKPRP	-0.0316
RRIRKRPPRLPRPRPRPANLPRP	0.299
RRIRMRPPRLPRPRPRPGQNPRP	0.0316
RRIRERPPRLPRPRPRPWWWPRP	0.0554
